Experimental data as given in patent publication US6538103B1, “Lysine binding fragments of angiostatin” (Bristol--Myers Squibb Company, priority 1998, dated 2003).

B1: K4: recombinant plasminogen kringle region 4, expressed in Pichia pastoris (protein)
chain: VQDCYHGDGQSYRGTSSTTTTGKKCQSWSSMTPHRHQKTPENYPNAGLTMNYCRNPDADKGPWCFTTDPSVRWEYCNLKKCSGT
modifications: human
notes: recombinant plasminogen kringle region 4, expressed in Pichia pastoris

What was measured:
[1] = tested on: Bovine capillary endothelial (BCE) cells; test: Endothelial cell migration assay (Boyden chamber, bFGF-stimulated); format: cell-based; conditions: bFGF 10 ng/ml, 4 hours migration; read-out: IC50 of inhibition of bFGF-induced BCE cell migration
Description: Bovine capillary endothelial (BCE) cells were harvested from bovine adrenal glands as previously described (33). BCE cells were maintained in DMEM in the presence of 10% bovine calf serum, 1% antibiotics, and 3 ng/ml of bFGF (PeproTech, Rockhill, N.J.). To evaluate endothelial cell migration, a Boyden Chamber-based assay was performed. First, the polycarbonate membranes with […] (Neuro Probe Inc., Cabin John, Md.) were coated with […] of collagen type I following manufacturer's instructions (Becton Dickinson, Bedford, Mass.). […] Each sample was tested in quadruplicate and a representative field in each well was counted at 10 x magnification to determine the number of migrated cells.
Fifty micrograms of the recombinant angiostatin in […] of serum-free DMEM was reduced by incubating with […] of 0.5 M dithiothreitol for 15 minutes at the room temperature. […] The homogeneity of the reduced and alkylated angiostatin was analyzed by SDS-PAGE before being examined for its inhibition on BCE cell migration. The endotoxin concentrations of both native and reduced/alkylated angiostatin were evaluated according to manufacturer's instructions (Associates of Cape Cod, Woods Hole, Mass.). […]

[2] = tested on: endothelial cell proliferation; conditions: previously described / reported; cited from earlier work

Molecule | IC50 [1] | effect on endothelial cell proliferation (in words) [2]
Angiostatin | ~0.05 µM | –
B1 | 0.5 µM | negligible effect on endothelial cell proliferation
